Measurements published in PMC8144572, “Molecular model of a sensor of two-component signaling system” (Scientific Reports, 2021).

B1: full-length NpSRII/NpHtrII complex (complex)
chain 1: MVGLTTLFWLGAIGMLVGTLAFAWAGRDAGSGERRYYVTLVGISGIAAVAYVVMALGVGWVPVAERTVFAPRYIDWILTTPLIVYFLGLLAGLDSREFGIVITLNTVVMLAGFAGAMVPGIERYALFGMGAVAFLGLVYYLVGPMTESASQRSSGIKSLYVRLRNLTVILWAIYPFIWLLGPPGVALLTPTVDVALIVYLDLVTKVGFGFIALDAAATLRAEHGESLAGVDTDAPAVAD
chain 2: not shown
notes: Sensory rhodopsin II (NpSRII), Natronomonas pharaonis, UniProt P42196; no limits stated; as m1; Sensory rhodopsin II transducer (NpHtrII), Natronomonas pharaonis, UniProt P42259; as m2; also called sensory rhodopsin II/transducer complex; full-length phototaxis complex; source: E. coli BL21-AI (SAXS) or BL21(DE3) (SANS), co-expressed, solubilised in DDM, purified (Ni-NTA, SEC); not shown: …
B2: full-length transducer NpHtrII from Natronomonas pharaonis (natural protein)
chain: not shown
notes: Sensory rhodopsin II transducer (NpHtrII), Natronomonas pharaonis, UniProt P42259; gene optimised for expression in E. coli; also called cognate transducer; source: E. coli BL21-AI (SAXS) or BL21(DE3) (SANS), co-expressed with NpSRII, solubilised in DDM, purified (Ni-NTA, SEC); not shown: 6xHis-tag (with ENS-linker), C-terminal, kept

What was measured:
[1] = target: the molecule itself; assay: SANS; full-length complex 0.40 mg/ml in D2O buffer, 4.0 M NaCl, 100 mM Na/Na-Pi pD 8.0, 1 mM EDTA, 0.05% DDM; OLIGOMER fit to a mixture of dimers and trimers of dimers (trimer of dimers = six NpSRII/NpHtrII units)
[2] = target: the molecule itself; assay: SAXS; detergent-solubilised (DDM) complex, peak fractions after gel filtration; low salt (150 mM NaCl); 0.57 mg/ml full-length and 0.78 mg/ml truncated complex; BM29 (ESRF); curves fitted with atomistic dimer models with a detergent belt (MEMPROT, CRYSOL3)

Row | Protein | stoichiometry N [1] | stoichiometry N [2] | binding result [1]
1 | B1 | 6 | 2 | 
2 | B2 |  |  | binds
